Drawing on publication doi:10.1101/2024.09.22.614354 (bioRxiv, 2024), this text covers binding result and Kd for one molecule.

For orientation: Kd means the constant that tells how readily two partners part at equilibrium.

Experiment in all cases: fluorescence polarisation
On the technique in general: In fluorescence polarisation assays a small probe gives low polarisation when free and higher when bound to something large.

One test addresses T1, Rb^P R741C (human, UniProt P06400 380-788, R741C).
T1 sequence: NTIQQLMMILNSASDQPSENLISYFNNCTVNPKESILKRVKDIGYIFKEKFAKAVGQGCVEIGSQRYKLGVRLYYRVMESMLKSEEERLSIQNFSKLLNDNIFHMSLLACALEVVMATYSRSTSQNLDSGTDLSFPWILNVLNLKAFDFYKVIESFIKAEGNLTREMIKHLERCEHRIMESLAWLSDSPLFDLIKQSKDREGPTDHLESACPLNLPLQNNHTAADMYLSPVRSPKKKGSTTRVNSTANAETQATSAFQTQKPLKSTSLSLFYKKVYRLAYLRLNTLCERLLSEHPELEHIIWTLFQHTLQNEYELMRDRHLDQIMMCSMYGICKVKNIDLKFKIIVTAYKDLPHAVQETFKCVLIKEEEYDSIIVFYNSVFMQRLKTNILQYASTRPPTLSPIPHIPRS

The next test addresses T2, Rb^P R741S (human, UniProt P06400 380-788, R741S).
T2 sequence: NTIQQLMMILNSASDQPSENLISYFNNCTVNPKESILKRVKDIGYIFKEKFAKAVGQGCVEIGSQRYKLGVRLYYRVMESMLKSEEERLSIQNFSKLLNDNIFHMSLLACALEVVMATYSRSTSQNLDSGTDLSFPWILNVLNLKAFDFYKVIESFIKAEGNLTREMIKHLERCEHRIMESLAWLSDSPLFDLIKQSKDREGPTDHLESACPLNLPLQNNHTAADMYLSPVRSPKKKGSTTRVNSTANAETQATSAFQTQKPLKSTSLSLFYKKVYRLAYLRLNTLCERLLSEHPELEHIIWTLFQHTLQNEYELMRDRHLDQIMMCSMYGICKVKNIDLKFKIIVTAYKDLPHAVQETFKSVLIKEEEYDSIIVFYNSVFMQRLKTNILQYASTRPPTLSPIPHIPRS

A further test concerns the target T3, Rb^P A525G (human, UniProt P06400 380-788, A525G).
T3 sequence: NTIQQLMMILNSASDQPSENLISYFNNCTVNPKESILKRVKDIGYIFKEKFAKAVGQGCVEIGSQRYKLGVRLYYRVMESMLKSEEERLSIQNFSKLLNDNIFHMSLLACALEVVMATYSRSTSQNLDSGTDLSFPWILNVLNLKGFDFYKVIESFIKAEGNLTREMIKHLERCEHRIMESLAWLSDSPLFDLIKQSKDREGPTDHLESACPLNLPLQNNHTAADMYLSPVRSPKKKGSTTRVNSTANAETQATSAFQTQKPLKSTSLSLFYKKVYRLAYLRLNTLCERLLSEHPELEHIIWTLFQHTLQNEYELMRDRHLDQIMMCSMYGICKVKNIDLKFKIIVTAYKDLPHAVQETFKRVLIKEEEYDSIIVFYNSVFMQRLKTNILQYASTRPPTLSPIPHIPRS

Test [1] has as its target T4, wild type Rb pocket domain (Rb^P) (human, UniProt P06400 380-788).
T4 sequence: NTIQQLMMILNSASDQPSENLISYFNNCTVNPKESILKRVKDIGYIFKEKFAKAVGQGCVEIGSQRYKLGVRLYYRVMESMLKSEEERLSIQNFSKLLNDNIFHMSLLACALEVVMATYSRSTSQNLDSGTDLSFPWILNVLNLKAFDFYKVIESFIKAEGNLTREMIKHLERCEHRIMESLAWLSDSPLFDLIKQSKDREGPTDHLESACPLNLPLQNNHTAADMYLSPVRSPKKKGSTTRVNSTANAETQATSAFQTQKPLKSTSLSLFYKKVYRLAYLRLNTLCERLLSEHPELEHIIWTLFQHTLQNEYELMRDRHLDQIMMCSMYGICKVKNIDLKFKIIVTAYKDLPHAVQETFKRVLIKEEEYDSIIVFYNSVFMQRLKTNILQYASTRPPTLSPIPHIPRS

A further test has as its target T5, Rb^P H555Y (human, UniProt P06400 380-788, H555Y).
T5 sequence: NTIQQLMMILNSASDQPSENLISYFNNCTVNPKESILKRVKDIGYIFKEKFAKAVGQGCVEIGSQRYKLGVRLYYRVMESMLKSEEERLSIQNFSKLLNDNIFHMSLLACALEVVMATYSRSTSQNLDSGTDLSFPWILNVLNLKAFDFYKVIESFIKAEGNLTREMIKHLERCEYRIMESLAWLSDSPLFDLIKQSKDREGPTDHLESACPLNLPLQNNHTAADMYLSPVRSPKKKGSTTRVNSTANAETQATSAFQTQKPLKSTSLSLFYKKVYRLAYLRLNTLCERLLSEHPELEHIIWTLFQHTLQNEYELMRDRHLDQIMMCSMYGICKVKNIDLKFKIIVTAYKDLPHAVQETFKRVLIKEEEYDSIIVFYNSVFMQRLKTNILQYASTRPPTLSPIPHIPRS

For the molecule DLYCYEQLN (not fully specified; TMR fluorescent label (TMR-E7^LxCxE)) [TMR-E7^LxCxE (LxCxE peptide of the E7 oncoprotein from HPV, TMR-labeled)], the binding result with Rb^P R741C, in the test with Rb^P R741S, with Rb^P A525G and in the test with Rb^P H555Y was “binds” in each case. In test [1], the Kd worked out at 12 nM.
